Measured values published in article PMC3236591, “Central domain deletions affect the SAXS solution structure and function of Yeast Hsp40 proteins Sis1 and Ydj1” (BMC Structural Biology, 2011).

Key:
[1] = molecular target: the molecule itself; experiment: SAXS; 2.75 to 7.1 mg/mL protein in 25 mM Tris-HCl pH 7.5, 500 mM NaCl; molecular mass from I(0) against a BSA standard
heated luciferase = molecular target: T1, heated luciferase (UniProt P08659 1-550 = luciferase); experiment: not stated; binding of Hsp40s to heated denatured luciferase as previously described (refs 15, 21); Sis1 binding set as standard (100%)
T1 construct: luciferase, heat-denatured, used as client protein; Heat-denatured in the assay; Firefly luciferase is surmised; also called heated denaturated luciferase; denatured luciferase
T1 sequence (P08659 whole entry): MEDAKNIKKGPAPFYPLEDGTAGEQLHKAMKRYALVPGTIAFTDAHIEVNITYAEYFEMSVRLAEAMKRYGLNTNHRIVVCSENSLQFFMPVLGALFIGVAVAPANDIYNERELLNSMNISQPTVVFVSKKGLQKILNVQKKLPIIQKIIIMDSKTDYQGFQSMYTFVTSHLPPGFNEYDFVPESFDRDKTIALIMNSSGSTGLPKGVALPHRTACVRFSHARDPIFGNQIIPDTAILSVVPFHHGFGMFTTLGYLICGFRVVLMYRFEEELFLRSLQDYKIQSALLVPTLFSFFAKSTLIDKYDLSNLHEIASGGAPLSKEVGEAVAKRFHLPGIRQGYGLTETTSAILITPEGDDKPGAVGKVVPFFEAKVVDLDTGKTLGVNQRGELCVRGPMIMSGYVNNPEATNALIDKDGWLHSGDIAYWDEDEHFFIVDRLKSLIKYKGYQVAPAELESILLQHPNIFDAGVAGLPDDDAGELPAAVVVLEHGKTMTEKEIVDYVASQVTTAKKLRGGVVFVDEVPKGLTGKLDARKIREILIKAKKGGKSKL

| Binder | stoichiometry N [1] | percent of Sis1 binding to heated luciferase (heated luciferase) [%] |
| --- | --- | --- |
| Sis1_Δ124-174 (natural protein, yeast, UniProt P25294 1-352, looked up, Sis1, yeast Type II Hsp40 (352 residues), residues 124 to 174 (G/M region) deleted; also called Sis1 G/M deletion mutant; source: E. coli BL21(DE3)pLys, purified (Macro-prep High S cation exchange, hydroxyapatite)) MVKETKLYDLLGVSPSANEQELKKGYRKAALKYHPDKPTGDTEKFKEISEAFEILNDPQKREIYDQYGLEAARSGGPSFGPGGPGGAGGAGGFPGGAGGFSGGHAFSNEDAFNIFSQFFGGSSTYPEEETVQVNLPVSLEDLFVGKKKSFKIGRKGPHGASEKTQIDIQLKPGWKAGTKITYKNQGDYNPQTGRRKTLQFVIQEKSHPNFKRDGDDLIYTLPLSFKESLLGFSKTIQTIDGRTLPLSRVQPVQPSQTSTYPGQGMPTPKNPSQRGNLIVKYKVDYPISLNDAQKRAIDENF | 2 | ~60 |
| Sis1_Δ121-257 (natural protein, yeast, UniProt P25294 1-352, looked up, Sis1, yeast Type II Hsp40 (352 residues), residues 121 to 257 (G/M and CTDI) deleted; also called Sis1 G/M plus CTDI deletion mutant; source: E. coli BL21(DE3)pLys, purified (Macro-prep High S cation exchange, hydroxyapatite)) MVKETKLYDLLGVSPSANEQELKKGYRKAALKYHPDKPTGDTEKFKEISEAFEILNDPQKREIYDQYGLEAARSGGPSFGPGGPGGAGGAGGFPGGAGGFSGGHAFSNEDAFNIFSQFFGHPNFKRDGDDLIYTLPLSFKESLLGFSKTIQTIDGRTLPLSRVQPVQPSQTSTYPGQGMPTPKNPSQRGNLIVKYKVDYPISLNDAQKRAIDENF | 2 | ~40 |
| Sis1 (natural protein, yeast, UniProt P25294 1-352, looked up, Sis1, yeast Type II Hsp40, 352 residues (J-domain, G/F, G/M, CTDI, CTDII); also called Type II Hsp40; full length Sis1 protein; source: recombinant, purified (Macro-prep High S cation exchange, hydroxyapatite)) MVKETKLYDLLGVSPSANEQELKKGYRKAALKYHPDKPTGDTEKFKEISEAFEILNDPQKREIYDQYGLEAARSGGPSFGPGGPGGAGGAGGFPGGAGGFSGGHAFSNEDAFNIFSQFFGGSSPFGGADDSGFSFSSYPSGGGAGMGGMPGGMGGMHGGMGGMPGGFRSASSSPTYPEEETVQVNLPVSLEDLFVGKKKSFKIGRKGPHGASEKTQIDIQLKPGWKAGTKITYKNQGDYNPQTGRRKTLQFVIQEKSHPNFKRDGDDLIYTLPLSFKESLLGFSKTIQTIDGRTLPLSRVQPVQPSQTSTYPGQGMPTPKNPSQRGNLIVKYKVDYPISLNDAQKRAIDENF | 2 | – |
| Ydj1_Δ106-255 (natural protein, Ydj1, yeast Type I Hsp40 (409 residues), residues 106 to 255 (ZFLR and CTDI) deleted; also called Ydj1 ZFLR plus CTDI deletion mutant; source: E. coli BL21(DE3), purified (Macro-prep High Q anion exchange, hydroxyapatite, Superdex 200 SEC)) not shown | 2 | ~40 |
